5 molecules from patent US20250163168A1 (Pfizer, published 2025) can be followed below.

The term Kd denotes the concentration at which binding is half-saturated. The term koff denotes the rate constant with which the complex falls apart. Low readings indicate slow dissociation, high ones fast dissociation. In general, kon refers to a measure of how fast the partners come together.

In one assay the target is human GLP1R (human, UniProt P43220 24-463). Put plainly: cell-based or functional assay.
In assay [1] the target is T1, Human GIPR ECD (GIPR extra cellular domain) (human).
T1 construct: The published benchmark structures (6dkj, 4hj0) used their own ECD constructs
T1 chain: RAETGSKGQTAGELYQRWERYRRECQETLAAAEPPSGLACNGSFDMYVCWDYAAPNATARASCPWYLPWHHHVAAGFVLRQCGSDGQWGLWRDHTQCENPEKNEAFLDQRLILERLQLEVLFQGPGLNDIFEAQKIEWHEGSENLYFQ
Put plainly: SPR (Biacore 8K, 37 C); antibody captured on anti-human IgG, human GIPR ECD as analyte; 1:1 model. A general note: SPR reads the build-up and loss of mass on a sensor chip optically.

For assay [2], the target named is T2, human GIPR (hGIPR), full length (human, UniProt P48546 22-466).
T2 sequence: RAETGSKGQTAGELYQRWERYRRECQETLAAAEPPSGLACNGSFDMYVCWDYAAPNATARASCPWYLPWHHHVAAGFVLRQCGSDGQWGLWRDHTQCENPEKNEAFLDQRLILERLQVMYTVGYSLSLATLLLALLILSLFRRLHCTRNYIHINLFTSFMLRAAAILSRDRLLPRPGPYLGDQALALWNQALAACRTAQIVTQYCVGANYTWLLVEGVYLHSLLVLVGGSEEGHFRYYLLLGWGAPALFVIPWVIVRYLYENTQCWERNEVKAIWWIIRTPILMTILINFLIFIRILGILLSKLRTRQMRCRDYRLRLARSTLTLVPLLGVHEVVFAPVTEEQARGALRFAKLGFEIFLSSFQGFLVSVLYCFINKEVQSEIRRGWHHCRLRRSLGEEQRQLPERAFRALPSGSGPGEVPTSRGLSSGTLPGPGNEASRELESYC
Put plainly: cell-based or functional assay.

Square brackets hold non-standard residues; d marks the D form. Ends that are not written are not given here. * marks the point of attachment. Aib = CC(C)(N)C(=O)O; BrAc = O=C(CBr)*

Chain of human GLP1R (P43220 24-463): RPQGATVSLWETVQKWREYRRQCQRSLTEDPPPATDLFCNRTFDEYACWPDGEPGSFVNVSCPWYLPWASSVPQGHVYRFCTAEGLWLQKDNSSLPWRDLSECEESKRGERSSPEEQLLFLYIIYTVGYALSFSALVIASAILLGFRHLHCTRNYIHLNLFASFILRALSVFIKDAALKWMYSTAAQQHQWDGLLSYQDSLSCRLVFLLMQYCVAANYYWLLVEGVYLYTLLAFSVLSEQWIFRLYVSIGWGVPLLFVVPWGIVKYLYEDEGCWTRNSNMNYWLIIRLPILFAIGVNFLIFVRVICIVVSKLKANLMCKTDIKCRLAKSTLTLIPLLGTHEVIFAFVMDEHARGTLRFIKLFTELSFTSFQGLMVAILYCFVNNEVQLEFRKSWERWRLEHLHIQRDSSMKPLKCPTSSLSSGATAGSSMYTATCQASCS

On to H-H[Aib]EGTFTSDYSSYLE[Aib]QAAKEFIAWLVKGRGGGGGSGGGGSGGGGSK(BrAc) (not fully specified (C-terminus)) [SEQ ID NO 152: GLP1(7-37) [Aib8; Tyr16; Aib22] with GGGGS(x3)-K(BrAc) linker], for which, in the assay with human GLP1R, the “cAMP assay, GLP1R agonist mode, EC50 (pM)” value (shortened to “cAMP assay … (pM)”) worked out at 2.1 pM and the “cAMP assay, GLP1R agonist mode, Emax (%)” value turned out to be 107%.
Consider H-H[Aib]EGTFTSDVSSYLE[Aib]QAAKEFIAWLVKGRGGGGGSGGGGSGGGGSK(BrAc) (not fully specified (C-terminus)) [SEQ ID NO 150: GLP1(7-37) [Aib8; Aib22] with GGGGS(x3)-K(BrAc) linker], for which the “cAMP assay, GLP1R agonist mode, Emax (%)” value with human GLP1R is 104%.
On to H-H[Aib]EGTFTSDVSSYLEEQAAKEFIAWLVKGGGGGGGSGGGGSGGGGSK(BrAc) (not fully specified (C-terminus)) [SEQ ID NO 153 (Benchmark): GLP1(7-37) [Aib8; Glu22; Gly36] with GGGGS(x3)-K(BrAc) linker], for which, in the assay with human GLP1R, the “cAMP assay … (pM)” value came out at 15 pM and the “cAMP assay, GLP1R agonist mode, Emax (%)” value stood at 109%.

B1: anti-GIPR antibody GIPR-2767 (antibody, human IgG1, kappa)
heavy: EVQLVESGGGLVKPGGSLRLSCAASGFPFSSAWMSWVRQAPGKGLEWVGRIKSKADAGTTDYGAPVKGRFTISRDDSKNTLYLQMNSLKTEDTAVYYCTTEDIVGVPFKGYYQYMDAWGKGTTVTVSSASTKGPSVFPLAPSSKSTSGGTAALGCLVKDYFPEPVTVSWNSGALTSGVHTFPAVLQSSGLYSLSSVVTVPSSSLGTQTYICNVNHKPSNTKVDKKVEPKSCDKTHTCPPCPAPEAAGAPSVFLFPPKPKDTLMISRTPEVTCVVVDVSHEDPEVKFNWYVDGVEVHNAKTKPREEQYNSTYRVVSVLTVLHQDWLNGKEYKCKVSNKALPAPIEKTISKAKGQPREPQVYTLPPSREEMTKNQVSLTCLVKGFYPSDIAVEWESNGQPENNYKTTPPVLDSDGSFFLYSKLTVDKSRWQQGNVFSCSVMHEALHNHYTQKSLSLSPGK
light: not shown
notes: also called GIPR-27676; GIPR-2676
In assay [1], B1 returned a Kd of 1.91 nM, an off-rate constant (koff) of 0.0013 s⁻¹ and a kon of 684000 M⁻¹ s⁻¹. Moreover, the “Human GIPR-CHO cAMP Antagonist Activity IC50” value in assay [2] is 28 nM.
With H[Aib]EGTFTSDYSSYLEEQAAKEFIAWLVKGRGGGGGSGGGGSGGGGSK(BrAc) (not fully specified (C-terminus)) [SEQ ID NO 151: GLP1(7-37) [Aib8; Tyr16; Glu22] with GGGGS(x3)-K(BrAc) linker], in the assay with human GLP1R, the “cAMP assay … (pM)” value came out at 3.5 pM and the “cAMP assay, GLP1R agonist mode, Emax (%)” value was found to be 109%.
